Laboratory results taken from the DeepSol protein solubility set.

Assay: soluble on expression in E. coli; label from the status in PepcDB or PDB records

Sequence	soluble on expression in E. coli
MAHHHHHHMNAMYSADQIHVPPELGTIMKQYTKAVMRDKPTDLYKYSANFFAILSGYAAPFDSEGQLMENGVQEASSRSTVPISFGSEKEENAGSQDPTDILLRRYDRTGTGYMDPAELPQLLAELRMNLSLDEKDVVSAEDILAALPSACDQIDLLELRNLLLESMGD	soluble
MGSDKIHHHHHHMSLCLFCDQPFTGDLDMRRLLLPGKSKTSCLCPSCRQLFAQIGTAFCPQCGRQQDSGEICQDCQKWRRIYQGNFLHNQAVYCYNQAFHDLMVRYKRYGDYLLCQVLQELAAPAVQKLAADYYVPVPTSPEHRKKRGYDTVWEIFTPLLPLTPLLAKKAGAGAQGEKDKKARMQAKQNFFLNPEFRGTITGKIILLDDIYTTGRTLYHARDAIEKAFPKCQVESFSISR	not soluble
SFLSNVKYNFMRIIKYEFILNDALNQSIIRANAQYLTAAALHNLDEAVKFDMGAYKSSKDDAKITVILRISKTQLYVTAQDEDQPVLLKEMPEIPKTITGSETNLLFFWETHGTKNYFTSVAHPNLFIATKQDYWVCLAGGPPSITDFQILENQA	soluble
MSIATTPLHTALSLPQIQSFAASDMAAIDTLIHDRLTSDIVLINQIADHIICSGGKRLRPMLTMLAGHAIGPTGPHHHQLAAIIEFIHTATLLHDDVVDGSELRRSRSTANALWGNAPSVLVGDFLYSRSFQLMTELANLEVMQILAETTNRISEGEVLQLLHVHNPDTDETTYLSVIERKTAILFAAAAQLGALASHADTQTQTRMYEYGMQLGYAFQITDDVLDYTANNSQLGKNLGDDLAEGKATLPVIHAMTHSDAATCERLRMIISKGDSDAMPEVLNAIRTTGSLDYSRQRASAYAATAERALDGLPETEAVAALRGLARYAVQRTY	not soluble
MRGSHHHHHHTDPALRASKVTPQPKIGFVSLGCPKNLVDSERILTELRTEGYDVVPSYDDADMVIVNTCGFIDSAVQESLEAIGEALNENGKVIVTGCLGAKEDQIREVHPKVLEITGPHSYEQVLEHVHHYVPKPKHNPFLSLVPEQGVKLTPRHYAYLKISEGCNHRCTFCIIPSMRGDLVSRPIGEVLSEAKRLVDAGVKEILVISQDTSAYGVDVKHRTGFHNGEPVKTSMVSLCEQLSKLGIWTRLHYVYPYPHVDDVIPLMAEGKILPYLDIPLQHASPRILKLMKRPGSVDRQLARIKQWREICPELTLRSTFIVGFPGETEEDFQMLLDFLKEARLDRVGCFKYSPVEGADANALPDQVPEEVKEERWNRFMQLQQQISAERLQEKVGREILVIIDEVDEEGAIGRSMADAPEIDGAVYLNGETNVKPGDILRVKVEHADEYDLWGSRVGLCGR	soluble
MSLKGGEYLETAAKVDVVVVDKTGTLTTGRPELTDVEVIEPAYSQGEVLELAARAETASEHPLADAIIRGAQDRGLSTTLVEAAENITGRGIIANVDGQAVAVGSAELLDHEPDSTRILELNAEGKTAMFVGVNGHAIGIVAVADAVRSDSASAIESLHKAGIQVVMATGDAHRVAQNVASKLGVDEVYSELLPEQKLELVRDLQAAGKTVAMVGDGVNDTPALAAADIGVAMGVAGSPAAIETADIALMADRLPRLAHAVTLAKRTVRTMREGHHHHHH	soluble
SESPWIAEDTSQIQTKLLEFAKSPEVFDWMVKIRRKIHENPELGYEELETSKLIRSELELIGIKYRYPVAITGVIGYIGTGEPPFVALRADMDALPIQEGVEWEHKSKIAGKMHACGHDGHVTMLLGAAKILHEHRHHLQGTVVLIFQPAEEGLSGAKKMREEGALKNVEAIFGIHLSARIPFGKAASRAGSFLAGAGVFEAVITGKGGHAAIPQHTIDPVVAASSIVLSLQQLVSRETDPLDSKVVTVSKVNGGNAFNVIPDSITIGGTLRAFTGFTQLQQRVKEVITKQAAVHRCNASVNLTPNGREPMPPTVNNKDLYKQFKKVVRDLLGQEAFVEAAPVMGSEDFSYFAETIPGHFSLLGMQDETNGYASSHSPLYRINEDVLPYGAAIHASMAVQYLKEKASKGSVSGFHEEL	soluble
MGSDKIHHHHHHMDFDMIEEKKDSVIVRNVENFELKDIFDCGQCFRWHRQENGNYIGIAFEKVVEVQKIGEDVVIYNINEEEFKNVWSEYFDLYRDYGEIKKELSRDPLLKKSVDFGEGIRILRQDPFEILLSFIISANNRIPMIKKCINNISEKAGKKLEYKGKIYYAFPTVDKLHEFTEKDFEECTAGFRAKYLKDTVDRIYNGELNLEYIKSLNDNECHEELKKFMGVGPKVADCIMLFSMQKYSAFPVDTWVKKAMMSLYVAPDVSLKKIRDFGREKFGSLSGFAQQYLFYYARENNIQL	not soluble
MSLRNMSIINSTPVRVIAIVGCDGSGKSTLTASLVNELAARMPTEHIYLGQSSGRIGEWISQLPVIGAPFGRYLRSKAAHVHEKPSTPPGNITALVIYLLSCWRAYKFRKMLCKSQQGFLLITDRYPQVEVPGFRFDGPQLAKTTGGNGWIKMLRQRELKLYQWMASYLPVLLIRLGIDEQTAFARKPDHQLAALQEKIAVTPQLTFNGAKILELDGRHPADEILQASLRAIHAALSEGHHHHHH	soluble
MGSDKIHHHHHHMSMEAASLDAVSEEQAQSVSILEQAIFATKQTDSSRAEELIRSLTEEALKGTVQWDKNLTVTFNKAITRLDDIISKQLAAIMHNEELQKLEGSWRGLHHTVKNSETNETLKIRVMSLSKKELHKDLSKAVEFDQSQMFKKIYEAEFGTPGGEPYGCLVGDYEFSNHPEDVETLSLISNVAAAGFCPFVSAAGSSLFGFDEWTELSKPRDLEKVFESLEYTQWRSFRDSDDSRFVTLTMPRVLARLPYGEATKPVEEFCYEEFELDLESGRAKVADHDDYCWMNAAYVMATNMGQAFSKYGFCTAIRGAEGGGKVEGLPAHVFTSDDGDPDLKCPTEIGITDRREAELSKLGFLPLCHYKHTDYAVFFGSQSCQKPKIMSNHDATANAAISARLPYLMATSRFAHYLKVMARDKIGSFMEAEDVESWLNRWILSFVNASEGGGQEIRAKYPLADAKVEVKEIPGQPGSYNAVAWLRPWLQMEELTASLRLVAKIPKVG	not soluble
MSLTAAGRWRDVEMMAYKQDDAAPFRDVTRQLLFSDPRLACEWRYFEVAAGGYSTLEKHDHVHGVMIHRGKGQCLVGHHVSDVAVGDLVFIPPQTWHQFRANAGDVLGFLCLVNAERDREGHHHHHH	not soluble
MGSDKIHHHHHHMTRYKLSAEVSFSKPSEIMGRLYILPYRDNAQKVLHFNIDHPSFCKVSINQDRFRNEHLDFKCNPSDDFSIIISYEVEVNSFSKSENEEEVFLSSSKYVNVDKFKMINVRYFSFDDLIDEVISMVRDSIRYDKNNKSVKSAFGSLIMGSGVCVNYSHVAIGILRALGIPARYVIGLIPFSTKEAHAWIEVKIGDVWFPVDPTNGIKGMQYLKWAIGRDDNDVRSKIWYSKPVSFDFSFDWNFR	not soluble
MAHHHHHHMQDVDEMKYLLPNLKQPITSIQVHSWTGTKESYILESKDYVLGEGMPEKCDAIATDCFLSGFTDIGKCFQCKLLMQEKNINDSCFKYVSSNQKELIKKQLKITAQDDEESSEYHLSESIKNLLKNIYKKNNDDNKKKELLHFENVNSALKSELLNYCNLLKEVNMNGVLKDHQLGNVQDVFNNLTKLLEEHKEENDNVLYHKMKNEALCLKNVNDWMKNKTGLLLPQLSYDLTYKNNNFTEFTQNKSYTSQNIVDKLYCNHEYCNRLKDHNNCISKINVEDQKNCALSWAFASKYHLETIKCMKGYEPLNASVLYVTNCLKNKNKDVCTEGSNPLVFLETIEEKGFLPTESNYPYDQSKVGDICPQLQNDWDNVFENTKVLDYNNGPFSVGTKGYIAYESEAFQKDMHSFVKLVKDEIMNKGSVIAYVKAENVLGYELNGKKVQNLCGDKTPDHVVNIVGYGNYINNKGEKKSYWIVRNSWGKYWGDDGYFKVDMYGPSTCEDNFIHTVVVFNVQVPINEKFDKKEHDIYNYYLKTSPEFYHNLYYKTFNSNKEEKSMNKNSYVYGQDTTPVENEAPRSGVQKPTELSSTESQTVSPPNESQTESLLSGGSQVTNPTLTQSTSSSSGQQETGPLSTQGLSPATGDPKGKEQEASPAEGLSGVLNPTKEVTSEEKIQIIHLLKHIKNSKIRRGLVKYNHEFEVGDNSCSRSTSKNAEMHDECVNICEKYWPECRGTAVPGYCLSTHDDKNECDFCYV	not soluble
MGIKHLNLTVADVVAAREFLEKYFGLTCSGTRGNAFAVMRDNDGFILTLMKGKEVQYPKTFHVGFPQESEEQVDKINQRLKEDGFLVEPPKHAHAYTFYVEAPGGFTIEVMC	soluble
MSLTRIQLVISDVDGTLVTTDKRLTDRARDAVSRLEASGVGFTLTSSRPPVGMRMYSDPLGITLPLGPFNGSSIVTPTLDVLEQHLIPDSAATISIELFERSGIDIWLFTNDNWYIRRDDGKYVVHEERTIRFSPTMAEDLTPFAGKACKIVGVSADFALLKRCEPELQAALGDRALAVRSQDYYLDVTPPGRSKGTFVATMAERLGIAADAIATIGDMQNDLPMFGVSGLPIAMGNAADDIKQQAAHVTGRNDDDGFAAAIDFILEHNARVGEGHHHHHH	soluble
MSSPSKRREMDMMKLMMSDYKVETINDGMQEFYVEFNGPKDSLYQGGVWKIRVELPDAYPYKSPSVGFITKIYHPNVDELSGSVCLDVINQTWSPMFDLVNVFETFLPQLLLYPNPSDPLNGEAAALMMRDRPAYEQRVKEYCEKYAKPGEGSEDKSSDEELSEEEYGSDNEDDDDDDVAIAGKPDP	not soluble
PTTRGYGETRGIVKENGLHTVCEEAGCPNIGECWDKKHATFMIMGDTCTRACAFCNVKTGMPGALDANEPAYVAEATRKLGLQHLVITSVDRDDLADGGAAHFAATIRAVREACPTTTIEILTPDFLRKDGALEVVVAAKPDVFNHNLETVPSRYLSVRPGARYFHSIRLLQRVKELDPSIFTKSGIMVGLGEERHEVLQVMDDLRSAEVDFLTIGQYLQPTRKHHAVMRYVTPDEFAGYQTTAYAKGFLMVSASPMTRSSHHAGDDFAKLKAA	not soluble
MTTMRTGSQIFMRSGQWNELWKEKNVPLRFTNPNISFDGSERTKAEIEVVDSQEKSLVTRNMQIIPWQHDIANLHLPERDSLILMPCATRTVGRRLTARNIGLADTRGNCDISWPGVMIKIYGQQAVTSARSHQKTAVLFSVRRAQVAAMILTYPWLLSEPVRVIARYSGVSVGTVSNALKIFQKAGYLAETMDGHRLVNAELFLSAWARAYPTGLGADLELLRGKAQQLPPYNLEHLGVKASESAVSDHISDGQSASLYLGEETFSPKVIKELRLVKNPAGTITLRRAFWNTIDVKEIPEAIVYADLLNSDDARLWDVAQIIKAIILKRARGDWLGDQDG	not soluble
GPGSMTTGQQQSIEGLRNELQQLEDSLMVREEALQRKRQQSERLNNELVDAYLSTTSQEESRASANEAYRTASRAKQVLENSETQSNESMWSNRDDYVSQLMAADEERKGVEADIGEVSSRIKELREDKVDAQKRLTVARLMSMLDDLQSLLKKKVYGPSGSEETRAQELLKTVQELSRERERTIHLLSKKEREMASLIDLKQRRIEELRKEFTRNVSMYADSNKRELLNVAQRIQGERHQLLEEMERLEEANRKITDVLMDTKYTTESAIKDRDTALSAVETMGVSTNPERECLQLRERIQKANAERRMYVLKMEEVQSSIDEDTVMYNTRMSKLRKEILFYQDETVRFEKENKDLKHLCDTLAGSLDGSH	not soluble
